Experimental data reported in patent US20230012273A1 (Boehringer Ingelheim, published 2023).

T1: cynoSIRPα (NP_001271679), Extracellular Domain + His-Tag (cynomolgus monkey)
T1 construct: also called CySIRPα NP_001271679; not shown: His-Tag
T1 chain: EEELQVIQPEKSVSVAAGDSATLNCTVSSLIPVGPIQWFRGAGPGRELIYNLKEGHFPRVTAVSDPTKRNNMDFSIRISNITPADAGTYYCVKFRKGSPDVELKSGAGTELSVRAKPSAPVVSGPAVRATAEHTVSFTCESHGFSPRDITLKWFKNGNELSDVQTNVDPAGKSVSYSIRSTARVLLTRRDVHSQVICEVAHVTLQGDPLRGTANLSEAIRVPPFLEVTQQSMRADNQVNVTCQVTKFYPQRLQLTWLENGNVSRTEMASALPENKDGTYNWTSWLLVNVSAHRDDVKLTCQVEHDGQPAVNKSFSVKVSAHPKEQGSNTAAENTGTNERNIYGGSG

T2: cynoSIRPα (XP_015313155), Extracellular Domain + His-Tag (cynomolgus monkey)
T2 construct: also called CySIRPα XP_015313155; not shown: His-Tag
T2 chain: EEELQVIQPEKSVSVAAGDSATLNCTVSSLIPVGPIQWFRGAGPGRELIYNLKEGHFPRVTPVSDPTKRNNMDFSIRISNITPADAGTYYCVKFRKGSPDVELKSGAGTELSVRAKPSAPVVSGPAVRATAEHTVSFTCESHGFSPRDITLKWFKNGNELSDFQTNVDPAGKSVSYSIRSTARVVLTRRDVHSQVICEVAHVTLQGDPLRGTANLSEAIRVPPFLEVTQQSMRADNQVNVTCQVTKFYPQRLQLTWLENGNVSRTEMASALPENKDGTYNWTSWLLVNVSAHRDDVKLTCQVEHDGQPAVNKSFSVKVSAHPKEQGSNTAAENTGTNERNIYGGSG

T3: cynoSIRPα (EGM_02252), Extracellular Domain + His-Tag (cynomolgus monkey)
T3 construct: also called CySIRPα EGM_02252; not shown: His-Tag
T3 chain: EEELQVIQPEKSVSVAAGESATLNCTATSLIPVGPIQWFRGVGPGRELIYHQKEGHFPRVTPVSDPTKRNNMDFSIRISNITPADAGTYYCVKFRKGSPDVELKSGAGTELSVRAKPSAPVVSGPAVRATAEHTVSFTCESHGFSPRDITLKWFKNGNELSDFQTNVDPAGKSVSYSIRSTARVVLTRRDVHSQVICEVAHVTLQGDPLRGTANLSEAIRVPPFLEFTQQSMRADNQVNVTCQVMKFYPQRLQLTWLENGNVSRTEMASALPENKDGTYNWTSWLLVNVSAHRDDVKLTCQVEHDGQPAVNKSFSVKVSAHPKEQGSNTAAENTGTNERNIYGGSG


Assays:
[1] = molecular target: T4, Human SIRPαV1 (NP_542970.1), Extracellular Domain + His-Tag (human, UniProt P78324 31-373); assay: SPR, antibody captured on Protein A/G, ECD-His analyte, 1:1 fit
T4 construct: also called huSIRPαV1; hSIRPαV1; not shown: His-Tag
T4 sequence (P78324 other isoform, or with tags, fused parts or gaps): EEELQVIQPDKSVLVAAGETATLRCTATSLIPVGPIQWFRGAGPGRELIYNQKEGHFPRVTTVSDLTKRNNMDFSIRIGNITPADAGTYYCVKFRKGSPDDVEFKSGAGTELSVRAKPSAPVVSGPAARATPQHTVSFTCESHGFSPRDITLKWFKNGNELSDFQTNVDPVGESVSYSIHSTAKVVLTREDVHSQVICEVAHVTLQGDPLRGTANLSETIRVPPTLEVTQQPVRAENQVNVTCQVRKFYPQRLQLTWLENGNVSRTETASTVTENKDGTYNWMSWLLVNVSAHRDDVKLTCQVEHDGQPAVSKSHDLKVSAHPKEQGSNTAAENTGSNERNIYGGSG
Protocol: (§1) The binding kinetics of anti-SIRPα antibodies to various SIRPα analytes are determined by surface plasmon resonance (SPR) using a Biacore 8K+(Cytiva). 1×HBS-EP+(Cytiva) is used as running buffer and for all the dilutions unless stated otherwise. The Series S CM5 sensorchip is activated with a 1:1 mixture of 0.1 M NHS (N-hydroxysuccinimide) and 0.4 M EDC (1-Ethyl-3-(3-dimethylaminopropyl) carbodiimide hydrochloride) for 420 seconds at a flow rate of 10 μl/min and immobilized with Protein A/G (Thermo Scientific, 10 μg/ml in 10 mM acetate pH 4.5) for 420 seconds at a flowrate of 10 μl/min resulting in approximately 3000 RU of Protein A/G on the surface. The sensorchip is then deactivated with 1 M ethanolamine HCl pH 8.5 for 420 seconds at a flowrate of 10 μl/min.
(§2) Antibodies (approximately 1 ug/ml) are captured on the Protein A/G surface for 60 seconds at a flowrate of 10 μl/min resulting in capture levels of approximately 240 RU. Dilutions of each SIRP protein (Extracellular Domain+His-Tag, with the concentrations as indicated) are injected as analytes over the captured antibody for 300 seconds of association at a flowrate of 30 μl/min, followed by a dissociation for 600 seconds.
(§3) The above procedures are used to measure binding properties of antibodies of the present disclosure. For each analyte used, the highest concentration was as indicated in Example 3 (see Table 36).

[2] = molecular target: T5, Human SIRPαV2 (CAA71403.1), Extracellular Domain + His-Tag (human, UniProt P78324 31-373); assay: as above
T5 construct: also called huSIRPαV2; hSIRPαV2; not shown: His-Tag
T5 sequence (P78324 other isoform, or with tags, fused parts or gaps): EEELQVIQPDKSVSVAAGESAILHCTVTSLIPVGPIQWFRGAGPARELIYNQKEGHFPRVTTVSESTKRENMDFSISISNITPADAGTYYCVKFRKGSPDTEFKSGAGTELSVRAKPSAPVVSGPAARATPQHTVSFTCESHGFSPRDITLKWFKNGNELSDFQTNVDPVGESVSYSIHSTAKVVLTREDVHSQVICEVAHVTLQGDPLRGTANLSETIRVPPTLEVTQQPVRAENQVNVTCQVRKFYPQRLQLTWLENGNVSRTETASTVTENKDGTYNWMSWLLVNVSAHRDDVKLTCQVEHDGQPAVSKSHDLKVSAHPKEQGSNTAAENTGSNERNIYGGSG
Protocol: as §1, §2, §3

[3] = molecular target: T1, cynoSIRPα (NP_001271679), Extracellular …; assay: as above
Protocol: as §1, §2, §3

[4] = molecular target: T2, cynoSIRPα (XP_015313155), Extracellular …; assay: as above
Protocol: as §1, §2, §3

[5] = molecular target: T3, cynoSIRPα (EGM_02252), Extracellular …; assay: SPR, antibody captured on Protein A/G, ECD-His analyte
Protocol: as §1, §2

| Binder | Kd [1] | koff [1] | kon [1] | Kd [2] | koff [2] | kon [2] | Kd [3] | koff [3] | kon [3] | Kd [4] | koff [4] | kon [4] | binding result [5] |
| --- | --- | --- | --- | --- | --- | --- | --- | --- | --- | --- | --- | --- | --- |
| Antibody E4 (antibody, human IgG1, kappa, L234A L235A, V domains shown) VH: QVQLQESGPGLVRPSETLSLTCTVSGGSIRNYYWSWIRQPPGKGLEWIGFIYYNGRTFYNPSLKSRVTISLDMSKNQFSLKMTSVTAADTAVYYCARVRAYSGIGLDGTDVWGQGTTVTVSS VL: DIVMTQSPLSLPVTPGEPASISCKSSQSLLYSNGYAYLDWYLQRPGQSPQLLIYLGSNRASGVPDRFSGSGSGTDFTLKISRVEAEDVGVYYCMQALQTPLTFGGGTKVEIKR | 0.99 nM | 0.000433 s⁻¹ | 438000 M⁻¹ s⁻¹ | 0.82 nM | 0.000421 s⁻¹ | 511000 M⁻¹ s⁻¹ | 21.1 nM | 0.00468 s⁻¹ | 222000 M⁻¹ s⁻¹ | 19.8 nM | 0.00451 s⁻¹ | 228000 M⁻¹ s⁻¹ | no binding (tested: 1000 nM) |
| Antibody E8 (antibody, human IgG1, kappa, L234A L235A, V domains shown) VH: QVQLQESGPGLVRPSETLSLTCTVSGGSIRNYYWSWIRQPPGKGLEWMGFIYDNGRTFYNPSLKSRVTISLDMSMNQFSLKMTSVTAADTAVYYCARVRAYSGIGLDGTDVWGQGTTVTVSS VL: DIVMTQSPLSLPVTPGEPASISCKSSQSLLYSNGYAYLDWYLQRPGQSPQLLIYQGSNRASGVPDRFSGSGSGTDFTLKISRVEAEDVGVFYCMQALQTPLTFGGGTKVEIKR | 1.21 nM | 0.00039 s⁻¹ | 322000 M⁻¹ s⁻¹ | 0.54 nM | 0.000236 s⁻¹ | 435000 M⁻¹ s⁻¹ | 17.7 nM | 0.0036 s⁻¹ | 204000 M⁻¹ s⁻¹ | 16.6 nM | 0.00344 s⁻¹ | 207000 M⁻¹ s⁻¹ | no binding (tested: 1000 nM) |
| Antibody E6 (antibody, human IgG1, kappa, L234A L235A, V domains shown) VH: QVQLQESGPGLVRPSETLSLTCTVSGGSIRNYYWSWIRQPPGKGLEWIGFIYYNGRTFYNPSLKSRVTISLDKSKNQFSLKMTSVTAADTAVYYCARVRAYSGIGLDGTDVWGQGTTVTVSS VL: DIVMTQSPLSLPVTPGEPASISCKSSQSLLYSNGYAYLDWYLQRPGQSPQLLIYLGSNRASGVPDRFSGSGSGTDFTLKISRVEAEDVGVYYCMQALQTPLTFGGGTKVEIKR | 1.03 nM | 0.000386 s⁻¹ | 374000 M⁻¹ s⁻¹ | 0.88 nM | 0.000375 s⁻¹ | 429000 M⁻¹ s⁻¹ | 41 nM | 0.00774 s⁻¹ | 189000 M⁻¹ s⁻¹ | 41.6 nM | 0.00729 s⁻¹ | 175000 M⁻¹ s⁻¹ | no binding (tested: 1000 nM) |
| Antibody E7 (antibody, human IgG1, kappa, L234A L235A, V domains shown) VH: QVQLQESGPGLVRPSETLSLTCTVSGGSIRNYYWSWIRQPPGKGLEWIGFIYYNGRTFYNPSLKSRVTISLDTSKNQFSLKMTSVTAADTAVYYCARVRAYSGIGLDGTDVWGQGTTVTVSS VL: DIVMTQSPLSLPVTPGEPASISCKSSQSLLYSNGYAYLDWYLQRPGQSPQLLIYQGSNRASGVPDRFSGSGSGTDFTLKISRVEAEDVGVFYCMQALQTPLTFGGGTKVEIKR | 1.2 nM | 0.000453 s⁻¹ | 378000 M⁻¹ s⁻¹ | 1.18 nM | 0.000552 s⁻¹ | 468000 M⁻¹ s⁻¹ | 21.9 nM | 0.00346 s⁻¹ | 158000 M⁻¹ s⁻¹ | 21.2 nM | 0.00337 s⁻¹ | 159000 M⁻¹ s⁻¹ | no binding (tested: 1000 nM) |
| Antibody E10 (antibody, human IgG1, kappa, L234A L235A, V domains shown) VH: QVQLQESGPGLVRPSETLSLTCTVSGGSIRNYYWSWIRQPPGKGLEWIGFIYYNGRTFYNPSLKSRVTISLDTSKNQFSLKMTSVTAADTAVYYCARVRAYSGIGLDGTDVWGQGTTVTVSS VL: DIVMTQSPLSLPVTPGEPASISCKSSQSLLYSNGYAYLDWYLQRPGQSPQLLIYLGSNRASGVPDRFSGSGSGTDFTLKISRVEAEDVGVYYCMQALQTPLTFGGGTKVEIKR | 1.23 nM | 0.000518 s⁻¹ | 422000 M⁻¹ s⁻¹ | 1.2 nM | 0.000596 s⁻¹ | 498000 M⁻¹ s⁻¹ | 25.2 nM | 0.00545 s⁻¹ | 216000 M⁻¹ s⁻¹ | 23.7 nM | 0.00526 s⁻¹ | 222000 M⁻¹ s⁻¹ | no binding (tested: 1000 nM) |

Results, then the binder that gave them:

| Kd [1] | koff [1] | kon [1] | Kd [2] | koff [2] | kon [2] | Kd [3] | koff [3] | kon [3] | Kd [4] | koff [4] | kon [4] | binding result [5] | Binder |
| --- | --- | --- | --- | --- | --- | --- | --- | --- | --- | --- | --- | --- | --- |
| 1.02 nM | 0.000336 s⁻¹ | 331000 M⁻¹ s⁻¹ | 0.87 nM | 0.000355 s⁻¹ | 406000 M⁻¹ s⁻¹ | 38.2 nM | 0.00471 s⁻¹ | 123000 M⁻¹ s⁻¹ | 37.8 nM | 0.00459 s⁻¹ | 121000 M⁻¹ s⁻¹ | no binding (tested: 1000 nM) | Antibody E5 (antibody, human IgG1, kappa, L234A L235A, V domains shown) VH: QVQLQESGPGLVRPSETLSLTCTVSGGSIRNYYWSWIRQPPGKGLEWIGFIYYNGRTFYNPSLKSRVTISLDKSKNQFSLKMTSVTAADTAVYYCARVRAYSGIGLDGTDVWGQGTTVTVSS VL: DIVMTQSPLSLPVTPGEPASISCKSSQSLLYSNGYAYLDWYLQRPGQSPQLLIYQGSNRASGVPDRFSGSGSGTDFTLKISRVEAEDVGVFYCMQALQTPLTFGGGTKVEIKR |
| 1.41 nM | 0.000498 s⁻¹ | 352000 M⁻¹ s⁻¹ | 0.57 nM | 0.000258 s⁻¹ | 453000 M⁻¹ s⁻¹ | 20.3 nM | 0.00542 s⁻¹ | 267000 M⁻¹ s⁻¹ | 20 nM | 0.00549 s⁻¹ | 275000 M⁻¹ s⁻¹ | no binding (tested: 1000 nM) | Antibody E11 (antibody, human IgG1, kappa, L234A L235A, V domains shown) VH: QVQLQESGPGLVRPSETLSLTCTVSGGSIRNYYWSWIRQPPGKGLEWMGFIYDNGRTFYNPSLKSRVTISLDMSMNQFSLKMTSVTAADTAVYYCARVRAYSGIGLDGTDVWGQGTTVTVSS VL: DIVMTQSPLSLPVTPGEPASISCKSSQSLLYSNGYAYLDWYLQRPGQSPQLLIYLGSNRASGVPDRFSGSGSGTDFTLKISRVEAEDVGVYYCMQALQTPLTFGGGTKVEIKR |
| 1.22 nM | 0.000631 s⁻¹ | 518000 M⁻¹ s⁻¹ | 0.94 nM | 0.000548 s⁻¹ | 583000 M⁻¹ s⁻¹ | 43.7 nM | 0.014 s⁻¹ | 321000 M⁻¹ s⁻¹ | 40.8 nM | 0.0132 s⁻¹ | 324000 M⁻¹ s⁻¹ | no binding (tested: 1000 nM) | Antibody E9 (antibody, human IgG1, kappa, L234A L235A, V domains shown) VH: QVQLQESGPGLVRPSETLSLTCTVSGGSIRNYYWSWIRQPPGKGLEWIGFIYYNGRTFYNPSLKSRVTISLDMSINQFSLKMTSVTAADTAVYYCARVRAYSGIGLDGTDVWGQGTTVTVSS VL: DIVMTQSPLSLPVTPGEPASISCKSSQSLLYSNAYNYLDWYLQRPGQSPQLLIYLGSNRASGVPDRFSGSGSGTDFTLKISRVEAEDVGVYYCMQALQTPLTFGGGTKVEIKR |
